PMC6897951, “Unusual features of the c-ring of F1FO ATP synthases” (Scientific Reports, 2019)

Target: the molecule itself
Assay: crystal structure; in meso crystallisation (monooleoyl lipidic phase) of solubilised cF1FO, 27.4 mg/mL, 0.1 M MES pH 5.8, 1.4 M ammonium sulfate, 22 °C; space group I121; 2.3 Å

B1: c-subunit of the spinach chloroplast F1FO ATP synthase (cF1FO), as the c14-ring (natural protein, Spinacia oleracea (spinach), UniProt P69447 1-81, looked up)
chain: MNPLIAAASVIAAGLAVGLASIGPGVGQGTAAGQAVEGIARQPEAEGKIRGTLLLSLAFMEALTIYGLVVALALLFANPFV
notes: ATP synthase subunit c of the chloroplast FO, Spinacia oleracea; Native protein from leaves; also called c1 subunit; c1 protomer; source: only the c14-ring crystallised; copies: 14
Q: With B1 as the protein, how does the “stoichiometry N” value read?
A: 14
